Results reported in patent US12427210B2, “Compounds comprising a fibroblast activation protein ligand and use thereof” (priority 2019, dated 2025).
Bridge positions count the residues as written; N and C are the ends. * marks the point of attachment. Hexanoyl = CCCCCC(=O)*

T1: Cathepsin F (Homo sapiens (Human)) (UniProt Q9UBX1)
T1 sequence: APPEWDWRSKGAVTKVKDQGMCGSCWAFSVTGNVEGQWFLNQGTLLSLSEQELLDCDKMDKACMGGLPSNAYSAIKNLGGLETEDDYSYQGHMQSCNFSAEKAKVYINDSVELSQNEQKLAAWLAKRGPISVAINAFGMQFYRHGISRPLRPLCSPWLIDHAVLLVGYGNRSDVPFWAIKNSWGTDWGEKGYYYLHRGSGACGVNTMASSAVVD

B1: Hex-[Cys(tMeBn(EuDOTA-AET))-Pro-Pro-Thr-Gln-Phe-Cys]-OH (3BP-3662) (peptide)
peptide: CPPTQFC
modifications: here or on the partner: N-terminal hexanoyl (Hex); Cys1 and Cys7 cyclised through tMeBn carrying EuDOTA-AET (europium complex); free C-terminal acid (-OH)
B2: Hex-[Cys-(tMeBn(ZnDOTA-AET))-Pro-Pro-Thr-Gln-Phe-Cys]-OH (3BP-4343) (peptide)
peptide: Hexanoyl-CPPTQFC-OH
modifications: bridge 1-7; not fully specified (bridges); printed as Hex-[Cys-(tMeBn(ZnDOTA-AET))-Pro-Pro-Thr-Gln-Phe-Cys]-OH; also: zinc complex (ZnDOTA) of 3BP-3554
B3: Hex-[Cys(tMeBn(LuDOTA-AET))-Pro-Pro-Thr-Gln-Phe-Cys]-OH (3BP-3624) (peptide)
peptide: CPPTQFC
modifications: here or on the partner: N-terminal hexanoyl (Hex); Cys1 and Cys7 cyclised through tMeBn carrying LuDOTA-AET (lutetium complex); free C-terminal acid (-OH)
B4: Hex-[Cys(tMeBn(GaDOTA-AET))-Pro-Pro-Thr-Gln-Phe-Cys]-OH (3BP-3949) (peptide)
peptide: CPPTQFC
modifications: here or on the partner: N-terminal hexanoyl (Hex); Cys1 and Cys7 cyclised through tMeBn carrying GaDOTA-AET (gallium complex); free C-terminal acid (-OH)
B5: Hex-[Cys-(tMeBn(CuDOTA-AET))-Pro-Pro-Thr-Gln-Phe-Cys]-OH (3BP-4293) (peptide)
peptide: CPPTQFC
modifications: here or on the partner: N-terminal hexanoyl (Hex); Cys1 and Cys7 cyclised through tMeBn carrying CuDOTA-AET (copper(II) complex); free C-terminal acid (-OH)
B6: Hex-[Cys(tMeBn(InDOTA-AET))-Pro-Pro-Thr-Gln-Phe-Cys]-OH (3BP-3623) (peptide)
peptide: CPPTQFC
modifications: here or on the partner: N-terminal hexanoyl (Hex); Cys1 and Cys7 cyclised through tMeBn carrying InDOTA-AET (indium complex); free C-terminal acid (-OH)
B7: Hex-[Cys(tMeBn(LuDOTA-PP))-Pro-Pro-Thr-Gln-Phe-Cys]-Asp-NH2 (3BP-3591) (peptide)
peptide: CPPTQFCD
modifications: N-terminal hexanoyl (Hex); Cys1 and Cys7 cyclised through tMeBn carrying LuDOTA-PP (lutetium complex); C-terminal amide
B8: Hex-[Cys(tMeBn(InDOTA-PP))-Pro-Pro-Thr-Gln-Phe-Cys]-Asp-NH2 (3BP-3590) (peptide)
peptide: CPPTQFCD
modifications: N-terminal hexanoyl (Hex); Cys1 and Cys7 cyclised through tMeBn carrying InDOTA-PP (indium complex); C-terminal amide
B9: Hex-[Cys(tMeBn(GaDOTA-PP))-Pro-Pro-Thr-Gln-Phe-Cys]-Asp-NH2 (3BP-3592) (peptide)
peptide: CPPTQFCD
modifications: N-terminal hexanoyl (Hex); Cys1 and Cys7 cyclised through tMeBn carrying GaDOTA-PP (gallium complex); C-terminal amide
B10: Hex-[Cys(tMeBn(EuDOTA-PP))-Pro-Pro-Thr-Gln-Phe-Cys]-Asp-NH2 (3BP-3661) (peptide)
peptide: CPPTQFCD
modifications: N-terminal hexanoyl (Hex); Cys1 and Cys7 cyclised through tMeBn carrying EuDOTA-PP (europium complex); C-terminal amide
B11: alpha -dendrotoxin (protein)
chain: QPRRKLCILHRNPGRCYDKIPAFYYNQKKKQCERFDWSGCGGNSNRFKTIEECRRTCIG
B12: Cystatin C (protein)
chain: SSPGKPPRLVGGPMDASVEEEGVRRALDFAVGEYNKASNDMYHSRALQVVRARKQIVAGVNYFLDVELGRTTCTKTQPNLDNCPFHDQPHLKRKAFCSFQIYAVPWQGTMTLSKSTCQDA

molecular target: human fibroblast activation protein (FAP) on human WI-38 fibroblasts (human); test: competitive FACS binding on FAP-expressing WI-38 cells against 3 nM Cy5-labeled compound; category A = pIC50 values >8.0; details: remark: other sources report otherwise

Binder | pIC50 Category (FACS)
B1 | > 8 pIC50
B2 | > 8 pIC50
B3 | > 8 pIC50
B4 | > 8 pIC50
B5 | > 8 pIC50
B6 | > 8 pIC50

molecular target: Recombinant human FAP (R&D systems, #3715-SE) (human); test: not given; details: not given
Sequence (chain, as listed by the source limits assumed): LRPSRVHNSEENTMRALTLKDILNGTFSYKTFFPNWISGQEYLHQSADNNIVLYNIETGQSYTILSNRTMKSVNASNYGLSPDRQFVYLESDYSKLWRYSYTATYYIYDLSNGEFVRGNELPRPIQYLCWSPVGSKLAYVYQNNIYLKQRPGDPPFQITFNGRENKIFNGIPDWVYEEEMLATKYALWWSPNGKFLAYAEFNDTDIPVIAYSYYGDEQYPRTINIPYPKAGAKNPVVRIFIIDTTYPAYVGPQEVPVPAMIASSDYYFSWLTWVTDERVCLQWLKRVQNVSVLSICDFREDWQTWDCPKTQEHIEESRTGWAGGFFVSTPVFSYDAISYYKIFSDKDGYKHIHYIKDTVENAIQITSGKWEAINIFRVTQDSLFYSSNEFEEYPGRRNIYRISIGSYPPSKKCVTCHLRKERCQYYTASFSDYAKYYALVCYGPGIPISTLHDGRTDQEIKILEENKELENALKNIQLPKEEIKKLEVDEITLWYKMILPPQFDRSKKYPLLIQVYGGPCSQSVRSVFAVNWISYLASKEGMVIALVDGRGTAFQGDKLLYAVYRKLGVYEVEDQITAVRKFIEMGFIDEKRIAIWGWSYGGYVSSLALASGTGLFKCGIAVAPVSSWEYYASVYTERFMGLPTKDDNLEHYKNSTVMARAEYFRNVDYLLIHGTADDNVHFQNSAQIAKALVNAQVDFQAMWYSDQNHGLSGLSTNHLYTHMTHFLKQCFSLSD

Binder | pIC50 Category (Activity)
B7 | > 8 pIC50
B8 | > 8 pIC50
B9 | > 8 pIC50
B10 | > 8 pIC50

molecular target: KV channel; test: radioligand displacement, reference compound of the assay (Ki Ref); details: not given

Binder | Ki
B11 | 0.097 nM

molecular target: T1, Cathepsin F (Homo sapiens (Human)); test: not given; details: not given

Binder | Percentage inhibition (%), Reference (% inhibition at 1 µM)
B12 | 74
